According to paper PMC11342145:
One block for each substance: values may come before it.

Assays:
Pik3r1 [1] = target: Pik3r1 (UniProt P26450); experiment: fragment affinity purification, western blot
Ubash3b (Sts1) [2] = target: Ubash3b (Sts1) (UniProt Q8BGG7); experiment: fragment affinity purification, western blot; settings: reference: pYpYYS fragment; sites Y313,S335
Plcg1 [3] = target: Plcg1 (UniProt Q62077); experiment: fragment affinity purification, western blot; settings: reference: pYpYYS fragment; sites Y313,S335
Sequence of UniProt Q62077 (Q62077 whole entry, looked up, the tested form may be a part): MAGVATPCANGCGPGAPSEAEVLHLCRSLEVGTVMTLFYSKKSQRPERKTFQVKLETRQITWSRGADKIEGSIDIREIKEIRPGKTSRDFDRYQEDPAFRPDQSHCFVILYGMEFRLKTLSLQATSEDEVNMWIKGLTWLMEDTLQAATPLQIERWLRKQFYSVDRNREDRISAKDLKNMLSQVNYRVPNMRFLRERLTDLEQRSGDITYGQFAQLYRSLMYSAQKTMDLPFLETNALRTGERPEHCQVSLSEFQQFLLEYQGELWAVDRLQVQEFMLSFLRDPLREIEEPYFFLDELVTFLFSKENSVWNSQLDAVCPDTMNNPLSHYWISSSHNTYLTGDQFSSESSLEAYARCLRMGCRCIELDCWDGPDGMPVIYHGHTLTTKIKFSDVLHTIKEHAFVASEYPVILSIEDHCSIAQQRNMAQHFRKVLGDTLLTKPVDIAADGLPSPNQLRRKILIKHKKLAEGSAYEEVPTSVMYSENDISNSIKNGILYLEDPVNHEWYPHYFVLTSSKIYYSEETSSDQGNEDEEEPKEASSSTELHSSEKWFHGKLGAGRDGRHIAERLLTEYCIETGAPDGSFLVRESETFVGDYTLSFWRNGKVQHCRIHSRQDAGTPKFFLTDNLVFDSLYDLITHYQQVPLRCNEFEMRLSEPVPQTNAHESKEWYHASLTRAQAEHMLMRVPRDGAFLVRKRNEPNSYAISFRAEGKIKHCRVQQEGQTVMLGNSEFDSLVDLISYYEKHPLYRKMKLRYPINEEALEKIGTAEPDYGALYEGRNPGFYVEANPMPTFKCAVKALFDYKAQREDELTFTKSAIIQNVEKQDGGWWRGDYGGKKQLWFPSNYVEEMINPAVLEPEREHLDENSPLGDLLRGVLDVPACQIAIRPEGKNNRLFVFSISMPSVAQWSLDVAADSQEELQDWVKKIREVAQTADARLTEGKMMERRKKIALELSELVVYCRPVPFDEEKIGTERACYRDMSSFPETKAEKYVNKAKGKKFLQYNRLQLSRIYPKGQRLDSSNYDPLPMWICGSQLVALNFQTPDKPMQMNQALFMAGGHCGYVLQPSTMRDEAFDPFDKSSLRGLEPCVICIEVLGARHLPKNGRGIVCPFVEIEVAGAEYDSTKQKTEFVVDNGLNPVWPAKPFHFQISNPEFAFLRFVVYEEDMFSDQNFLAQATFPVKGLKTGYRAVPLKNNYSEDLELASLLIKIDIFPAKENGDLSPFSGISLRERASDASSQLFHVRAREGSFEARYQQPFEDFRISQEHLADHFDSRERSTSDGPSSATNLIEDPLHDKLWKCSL

Pik3r1 [4] = target: Pik3r1 (UniProt P26450); experiment: fragment AP-MS, label-free quantification
Ubash3b (Sts1) [5] = target: Ubash3b (Sts1) (UniProt Q8BGG7); experiment: fragment AP-MS, label-free quantification
Plcg1 [6] = target: Plcg1 (UniProt Q62077); experiment: fragment AP-MS, label-free quantification
Grb7 = Grb7 (UniProt Q03160); experiment: fragment AP-MS, label-free quantification; settings: reference: YYYS fragment
Sequence of UniProt Q03160 (Q03160 whole entry, looked up, the tested form may be a part): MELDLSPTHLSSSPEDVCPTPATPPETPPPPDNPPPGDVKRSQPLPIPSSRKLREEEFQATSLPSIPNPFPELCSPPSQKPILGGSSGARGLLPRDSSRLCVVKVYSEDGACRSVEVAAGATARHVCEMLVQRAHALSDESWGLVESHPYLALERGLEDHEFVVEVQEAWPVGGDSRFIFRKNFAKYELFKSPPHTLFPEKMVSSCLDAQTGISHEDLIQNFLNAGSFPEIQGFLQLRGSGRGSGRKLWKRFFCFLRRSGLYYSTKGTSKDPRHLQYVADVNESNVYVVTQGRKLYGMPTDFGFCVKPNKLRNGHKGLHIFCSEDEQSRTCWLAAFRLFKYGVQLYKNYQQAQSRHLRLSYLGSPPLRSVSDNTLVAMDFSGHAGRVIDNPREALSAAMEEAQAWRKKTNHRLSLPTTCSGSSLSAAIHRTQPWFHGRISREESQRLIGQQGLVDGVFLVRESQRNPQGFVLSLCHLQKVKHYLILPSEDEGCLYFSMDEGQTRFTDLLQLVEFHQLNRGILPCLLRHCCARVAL

Grb2 [7] = target: Grb2 (UniProt Q60631); experiment: fragment affinity purification, western blot; settings: reference: YYYS fragment; sites Y239,Y240
Grb2 [8] = target: Grb2 (UniProt Q60631); experiment: fragment AP-MS, label-free quantification; settings: reference: YYYS fragment; sites Y239,Y240
Arhgef5 = Arhgef5 (UniProt E9Q7D5); experiment: fragment AP-MS, label-free quantification; settings: reference: YYYS fragment; sites Y239,Y240
Sequence of UniProt E9Q7D5 (E9Q7D5 whole entry, looked up, the tested form may be a part): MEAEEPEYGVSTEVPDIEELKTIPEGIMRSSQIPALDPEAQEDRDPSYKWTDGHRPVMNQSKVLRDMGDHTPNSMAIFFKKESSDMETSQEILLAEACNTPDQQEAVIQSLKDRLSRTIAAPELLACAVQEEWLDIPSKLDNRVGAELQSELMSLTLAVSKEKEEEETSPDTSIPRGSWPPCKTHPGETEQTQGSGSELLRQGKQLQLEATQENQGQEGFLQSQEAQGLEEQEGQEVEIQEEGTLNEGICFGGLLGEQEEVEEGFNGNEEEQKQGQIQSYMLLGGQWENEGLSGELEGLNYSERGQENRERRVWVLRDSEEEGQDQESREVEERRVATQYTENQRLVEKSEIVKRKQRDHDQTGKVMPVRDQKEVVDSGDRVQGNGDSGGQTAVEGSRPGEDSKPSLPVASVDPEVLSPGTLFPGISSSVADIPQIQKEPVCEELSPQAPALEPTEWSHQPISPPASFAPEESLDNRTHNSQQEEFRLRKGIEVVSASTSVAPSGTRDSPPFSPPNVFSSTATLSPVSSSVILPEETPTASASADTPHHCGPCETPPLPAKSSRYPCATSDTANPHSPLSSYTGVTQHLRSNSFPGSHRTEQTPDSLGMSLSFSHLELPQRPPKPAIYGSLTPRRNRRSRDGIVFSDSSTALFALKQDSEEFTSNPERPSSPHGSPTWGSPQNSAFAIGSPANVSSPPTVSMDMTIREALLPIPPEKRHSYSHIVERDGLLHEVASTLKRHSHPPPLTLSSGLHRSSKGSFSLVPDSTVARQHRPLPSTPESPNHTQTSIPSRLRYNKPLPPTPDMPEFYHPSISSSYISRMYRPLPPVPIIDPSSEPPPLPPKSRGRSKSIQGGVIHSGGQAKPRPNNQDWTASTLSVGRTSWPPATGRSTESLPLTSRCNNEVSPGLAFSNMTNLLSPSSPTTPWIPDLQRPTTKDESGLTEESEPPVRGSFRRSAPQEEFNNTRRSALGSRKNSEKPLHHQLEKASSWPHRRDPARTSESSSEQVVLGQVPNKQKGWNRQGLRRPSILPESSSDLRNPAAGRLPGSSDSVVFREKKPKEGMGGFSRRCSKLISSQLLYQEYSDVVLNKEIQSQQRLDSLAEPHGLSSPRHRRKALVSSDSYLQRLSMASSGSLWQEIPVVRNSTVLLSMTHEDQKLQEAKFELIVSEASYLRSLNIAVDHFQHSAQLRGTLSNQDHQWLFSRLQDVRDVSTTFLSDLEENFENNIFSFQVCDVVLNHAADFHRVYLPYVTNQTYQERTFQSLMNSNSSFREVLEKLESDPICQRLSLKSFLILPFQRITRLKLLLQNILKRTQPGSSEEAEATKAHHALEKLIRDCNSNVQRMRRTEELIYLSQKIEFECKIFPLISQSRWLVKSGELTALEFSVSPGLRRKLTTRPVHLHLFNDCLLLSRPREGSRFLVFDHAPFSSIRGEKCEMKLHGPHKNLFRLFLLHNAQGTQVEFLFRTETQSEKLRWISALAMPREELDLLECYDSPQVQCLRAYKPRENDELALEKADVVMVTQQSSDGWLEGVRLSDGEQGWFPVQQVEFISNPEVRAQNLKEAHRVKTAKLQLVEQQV

[9] = reference: pYpYYS fragment, sites Y313,S335
[10] = reference: YYYS fragment, sites Y239,Y240,Y313,S335
[11] = reference: YYYS fragment, sites Y239,Y240

Sequence of UniProt P26450 (P26450 whole entry, looked up, the tested form may be a part): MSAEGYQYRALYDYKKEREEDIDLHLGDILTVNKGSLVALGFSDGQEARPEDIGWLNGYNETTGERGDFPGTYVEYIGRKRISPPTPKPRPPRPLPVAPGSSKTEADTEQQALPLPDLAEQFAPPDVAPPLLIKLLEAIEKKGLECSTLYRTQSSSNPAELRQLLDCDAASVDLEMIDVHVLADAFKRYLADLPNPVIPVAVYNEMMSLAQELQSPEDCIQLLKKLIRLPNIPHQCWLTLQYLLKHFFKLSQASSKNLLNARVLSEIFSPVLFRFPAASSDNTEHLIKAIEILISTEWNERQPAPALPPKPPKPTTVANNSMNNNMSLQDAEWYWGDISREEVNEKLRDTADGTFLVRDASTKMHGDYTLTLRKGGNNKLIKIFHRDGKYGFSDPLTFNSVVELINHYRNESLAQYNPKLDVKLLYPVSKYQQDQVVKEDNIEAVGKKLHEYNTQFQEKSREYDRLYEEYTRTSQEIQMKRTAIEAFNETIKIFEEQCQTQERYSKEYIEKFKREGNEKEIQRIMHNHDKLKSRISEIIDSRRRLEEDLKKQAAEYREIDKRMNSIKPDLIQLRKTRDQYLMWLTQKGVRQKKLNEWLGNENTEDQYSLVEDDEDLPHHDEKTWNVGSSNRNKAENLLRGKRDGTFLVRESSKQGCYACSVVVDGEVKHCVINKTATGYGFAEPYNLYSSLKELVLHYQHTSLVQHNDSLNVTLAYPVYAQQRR
Sequence of UniProt Q8BGG7 (Q8BGG7 whole entry, looked up, the tested form may be a part): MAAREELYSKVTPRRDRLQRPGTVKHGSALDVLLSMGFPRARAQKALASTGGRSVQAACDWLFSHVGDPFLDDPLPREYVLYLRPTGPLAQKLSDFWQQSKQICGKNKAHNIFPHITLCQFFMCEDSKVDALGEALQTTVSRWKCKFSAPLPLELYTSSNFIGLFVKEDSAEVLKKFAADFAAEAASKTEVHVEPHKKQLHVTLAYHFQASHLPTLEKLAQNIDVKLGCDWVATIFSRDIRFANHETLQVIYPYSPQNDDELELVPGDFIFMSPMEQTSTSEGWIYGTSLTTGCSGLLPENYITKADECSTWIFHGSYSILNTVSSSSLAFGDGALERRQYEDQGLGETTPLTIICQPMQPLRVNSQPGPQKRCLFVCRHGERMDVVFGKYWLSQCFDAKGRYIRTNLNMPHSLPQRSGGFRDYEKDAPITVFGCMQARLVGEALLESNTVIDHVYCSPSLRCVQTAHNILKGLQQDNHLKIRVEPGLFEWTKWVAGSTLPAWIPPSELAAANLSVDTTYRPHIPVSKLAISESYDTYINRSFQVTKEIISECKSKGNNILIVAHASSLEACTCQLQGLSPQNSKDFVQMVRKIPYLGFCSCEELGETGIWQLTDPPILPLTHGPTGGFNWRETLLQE

binding against the reference (Pik3r1 [1]; [9]): stronger | binding against the reference (Ubash3b (Sts1) [2]): stronger | binding against the reference (Plcg1 [3]): stronger | binding against the reference (Pik3r1 [4]; [9]): stronger | binding against the reference (Ubash3b (Sts1) [5]; [10]): stronger | binding against the reference (Ubash3b (Sts1) [5]; [9]): stronger | binding against the reference (Plcg1 [6]; [10]): stronger | binding against the reference (Plcg1 [6]; [9]): stronger
Substance: Shc1 (p52Shc1) CH1 region, 107 residues (from UniProt P98083-2) pYpYpYpS fragment

binding against the reference (Grb7; sites Y239): stronger
Substance: Shc1 (p52Shc1) CH1 region, 107 residues (from UniProt P98083-2) pYYYS fragment

binding against the reference (Grb2 [7]): stronger | binding against the reference (Pik3r1 [1]; [11]): stronger | binding against the reference (Grb2 [8]): stronger | binding against the reference (Pik3r1 [4]; [11]): stronger | binding against the reference (Grb7; sites Y239,Y240): stronger | binding against the reference (Arhgef5): stronger
Substance: Shc1 (p52Shc1) CH1 region, 107 residues (from UniProt P98083-2) pYpYYS fragment
